According to PMC11042539 (Journal of the American Chemical Society, 2011):
Where two headings read alike, the source gives them in different places.

Experiments:
Ag85c = Ag85c (Mycobacterium tuberculosis, UniProt P9WQN9); experiment: biochemical
[1] = tested on: OC[C@H]1O[C@H](O[C@H]2O[C@H](CO)[C@@H](O)[C@H](O)[C@H]2O)[C@H](O)[C@@H](O)[C@@H]1O; experiment: purified protein

Chain of Ag85c (P9WQN9 46-340 limits assumed): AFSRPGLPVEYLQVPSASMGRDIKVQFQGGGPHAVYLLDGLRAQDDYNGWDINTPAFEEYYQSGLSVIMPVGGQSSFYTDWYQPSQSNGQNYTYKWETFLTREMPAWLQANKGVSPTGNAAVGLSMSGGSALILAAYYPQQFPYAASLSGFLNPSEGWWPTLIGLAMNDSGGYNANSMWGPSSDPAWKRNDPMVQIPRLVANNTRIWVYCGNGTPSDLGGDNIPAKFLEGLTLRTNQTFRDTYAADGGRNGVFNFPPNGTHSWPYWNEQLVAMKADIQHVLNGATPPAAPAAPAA

Compound	Ki (Ag85c) [µM]	Km [1] [µM]	kcat [1] [s⁻¹]	kcat/Km [1] [M⁻¹ s⁻¹]	Km ([1]; Ser-His-Asp catalytic triad at the trehalose binding site) [µM]
CCCCCC(=O)OC[C@H]1O[C@H](O[C@H]2O[C@H](COC(=O)CCCCC)[C@@H](O)[C@H](O)[C@H]2O)[C@H](O)[C@@H](O)[C@@H]1O [2b, 6,6’-di-hexanoyltrehalose]	355 ± 106				
Ag85a (Mycobacterium tuberculosis H37Rv)		175	0.014	82	
Ag85b (Mycobacterium tuberculosis H37Rv)		112	0.003	30	
Ag85c (Mycobacterium tuberculosis H37Rv)					16.9 ± 5.3
